This note sets out measurements from the Human Domainome abundance scans (Beltran et al. 2025).

± gives the uncertainty stated by the source.

The nature of the data set: abundance fitness (aPCA) (normalised: wild type 0, dead -1); higher = more abundant; growth selection in yeast, the domain comes from the species named. The settings on record: Homo sapiens.
As to “Transcriptional activator Myb M189C, P10242”, the abundance fitness is -0.311 ± 0.095.

“Transcriptional activator Myb M189D, P10242” yielded an abundance fitness of -0.384 ± 0.094.

“Transcriptional activator Myb M189F, P10242” came in with an abundance fitness of -0.045 ± 0.16. As to “Transcriptional activator Myb M189G, P10242”, the abundance fitness is -0.268 ± 0.05. For the substance “Transcriptional activator Myb M189I, P10242”, the abundance fitness is -0.313 ± 0.19. Next, “Transcriptional activator Myb M189K, P10242”: 0.038 ± 0.14; “Transcriptional activator Myb M189L, P10242”: 0.073 ± 0.083. For the substance “Transcriptional activator Myb M189N, P10242”, the abundance fitness was -0.155 ± 0.14. “Transcriptional activator Myb M189P, P10242” yielded an abundance fitness of -0.386 ± 0.17. The same measure for “Transcriptional activator Myb M189R, P10242”: -0.303 ± 0.064; for “Transcriptional activator Myb M189S, P10242”: -0.303 ± 0.065; for “Transcriptional activator Myb M189T, P10242”: -0.181 ± 0.085. The same measure for “Transcriptional activator Myb M189V, P10242”: -0.02 ± 0.064; for “Transcriptional activator Myb M189W, P10242”: -0.36 ± 0.093. The same measure for “Transcriptional activator Myb M189Y, P10242”: -0.535 ± 0.15; for “Transcriptional activator Myb N179A, P10242”: 0.001 ± 0.053; for “Transcriptional activator Myb N179C, P10242”: -0.022 ± 0.088. As for “Transcriptional activator Myb N179E, P10242”, the abundance fitness is 0.016 ± 0.069. As for “Transcriptional activator Myb N179F, P10242”, the abundance fitness is -0.027 ± 0.12. Next, “Transcriptional activator Myb N179G, P10242”: 0.004 ± 0.041. In turn, “Transcriptional activator Myb N179H, P10242” showed an abundance fitness of -0.04 ± 0.094. “Transcriptional activator Myb N179I, P10242” showed an abundance fitness of 0.127 ± 0.14. “Transcriptional activator Myb N179L, P10242” displayed an abundance fitness of 0.029 ± 0.059. The same measure for “Transcriptional activator Myb N179P, P10242”: -0.489 ± 0.097.

As for “Transcriptional activator Myb N179Q, P10242”, the abundance fitness is -0.025 ± 0.078. Next, “Transcriptional activator Myb N179S, P10242”: -0.075 ± 0.061. Next, “Transcriptional activator Myb N179T, P10242”: 0.026 ± 0.075. Substance “Transcriptional activator Myb N179W, P10242” showed an abundance fitness of -0.169 ± 0.066. Next, “Transcriptional activator Myb N179Y, P10242”: -0.075 ± 0.1.

Turning to “Transcriptional activator Myb N183A, P10242”, the abundance fitness turned out to be 0.037 ± 0.094. The same measure for “Transcriptional activator Myb N183C, P10242”: -0.203 ± 0.12; for “Transcriptional activator Myb N183D, P10242”: 0.142 ± 0.18. For the substance “Transcriptional activator Myb N183E, P10242”, the abundance fitness worked out at 0.011 ± 0.098. Consider “Transcriptional activator Myb N183F, P10242”, for which the abundance fitness was -0.176 ± 0.14. The substance “Transcriptional activator Myb N183G, P10242” had an abundance fitness of -0.067 ± 0.063. The same measure for “Transcriptional activator Myb N183H, P10242”: 0.141 ± 0.17; for “Transcriptional activator Myb N183I, P10242”: -0.022 ± 0.11; for “Transcriptional activator Myb N183K, P10242”: -0.192 ± 0.099. Regarding “Transcriptional activator Myb N183L, P10242”, the abundance fitness was -0.074 ± 0.084. Next, “Transcriptional activator Myb N183M, P10242”: 0.068 ± 0.11. Next, “Transcriptional activator Myb N183P, P10242”: -1.09 ± 0.14.

As to “Transcriptional activator Myb N183Q, P10242”, the abundance fitness is -0.094 ± 0.13. Next, “Transcriptional activator Myb N183R, P10242”: -0.153 ± 0.051; “Transcriptional activator Myb N183S, P10242”: -0.019 ± 0.085; “Transcriptional activator Myb N183T, P10242”: 0.101 ± 0.086. Regarding “Transcriptional activator Myb N183W, P10242”, the abundance fitness was -0.198 ± 0.084. Substance “Transcriptional activator Myb N183Y, P10242” registered an abundance fitness of -0.343 ± 0.1. Next, “Transcriptional activator Myb N186A, P10242”: -0.081 ± 0.07; “Transcriptional activator Myb N186C, P10242”: -0.028 ± 0.089. “Transcriptional activator Myb N186E, P10242” registered an abundance fitness of 0.037 ± 0.079. “Transcriptional activator Myb N186F, P10242” came in with an abundance fitness of -0.055 ± 0.13. “Transcriptional activator Myb N186G, P10242” came in with an abundance fitness of -0.162 ± 0.055. In turn, “Transcriptional activator Myb N186H, P10242” showed an abundance fitness of -0.139 ± 0.19.

Substance “Transcriptional activator Myb N186I, P10242” displayed an abundance fitness of 0.027 ± 0.1. For “Transcriptional activator Myb N186K, P10242”, the abundance fitness is 0.065 ± 0.1. Next, “Transcriptional activator Myb N186L, P10242”: -0.016 ± 0.071. As for “Transcriptional activator Myb N186M, P10242”, the abundance fitness is -0.007 ± 0.11. “Transcriptional activator Myb N186P, P10242” registered an abundance fitness of -0.804 ± 0.14. The same measure for “Transcriptional activator Myb N186R, P10242”: -0.047 ± 0.059; for “Transcriptional activator Myb N186S, P10242”: -0.062 ± 0.062. Substance “Transcriptional activator Myb N186V, P10242” showed an abundance fitness of -0.017 ± 0.072.

In the case of “Transcriptional activator Myb N186Y, P10242”, the abundance fitness is -0.154 ± 0.15. “Transcriptional activator Myb P174A, P10242”: the abundance fitness was -0.359 ± 0.066. Next, “Transcriptional activator Myb P174C, P10242”: -0.239 ± 0.15; “Transcriptional activator Myb P174D, P10242”: -0.224 ± 0.1; “Transcriptional activator Myb P174E, P10242”: -0.02 ± 0.098. As for “Transcriptional activator Myb P174F, P10242”, the abundance fitness was -0.298 ± 0.17. The substance “Transcriptional activator Myb P174G, P10242” registered an abundance fitness of -0.462 ± 0.056. Next, “Transcriptional activator Myb P174H, P10242”: -0.479 ± 0.12; “Transcriptional activator Myb P174I, P10242”: -0.339 ± 0.14; “Transcriptional activator Myb P174K, P10242”: -0.086 ± 0.11.

“Transcriptional activator Myb P174L, P10242” came in with an abundance fitness of -0.443 ± 0.082. Next, “Transcriptional activator Myb P174M, P10242”: -0.329 ± 0.093. Next, “Transcriptional activator Myb P174N, P10242”: -0.255 ± 0.16. Next, “Transcriptional activator Myb P174R, P10242”: -0.251 ± 0.052. Turning to “Transcriptional activator Myb P174S, P10242”, the abundance fitness was -0.338 ± 0.088. With “Transcriptional activator Myb P174T, P10242”, the abundance fitness is -0.184 ± 0.074.

Substance “Transcriptional activator Myb P174V, P10242” showed an abundance fitness of -0.127 ± 0.073. “Transcriptional activator Myb P174Y, P10242” had an abundance fitness of -0.643 ± 0.12. In turn, “Transcriptional activator Myb Q157L, P10242” gave an abundance fitness of -0.081 ± 0.22.

Substance “Transcriptional activator Myb Q195A, P10242” registered an abundance fitness of -0.045 ± 0.079.

Regarding “Transcriptional activator Myb Q195C, P10242”, the abundance fitness is -0.043 ± 0.12.

The substance “Transcriptional activator Myb Q195D, P10242” came in with an abundance fitness of -0.19 ± 0.13. In turn, “Transcriptional activator Myb Q195E, P10242” came in with an abundance fitness of 0.006 ± 0.15.

As to “Transcriptional activator Myb Q195F, P10242”, the abundance fitness is -0.244 ± 0.15. The same measure for “Transcriptional activator Myb Q195G, P10242”: -0.074 ± 0.074; for “Transcriptional activator Myb Q195H, P10242”: -0.269 ± 0.16. Substance “Transcriptional activator Myb Q195I, P10242” displayed an abundance fitness of -0.19 ± 0.15. In turn, “Transcriptional activator Myb Q195K, P10242” yielded an abundance fitness of -0.388 ± 0.41. Turning to “Transcriptional activator Myb Q195L, P10242”, the abundance fitness is -0.057 ± 0.091. The substance “Transcriptional activator Myb Q195M, P10242” yielded an abundance fitness of -0.199 ± 0.16.

As to “Transcriptional activator Myb Q195N, P10242”, the abundance fitness was determined as 0.107 ± 0.29. The same measure for “Transcriptional activator Myb Q195P, P10242”: -0.214 ± 0.15; for “Transcriptional activator Myb Q195R, P10242”: 0.091 ± 0.07. In turn, “Transcriptional activator Myb Q195S, P10242” registered an abundance fitness of -0.054 ± 0.1.
